US20170174769A1 (Regeneron, published 2017)
Substitutions are numbered along the chain they refer to. Numbers in names are those of the source.

T1: full-length human KLB on HEK293/hKLB/SRE-luc cells (human, UniProt Q86Z14 1-1044)
T1 construct: amino acids 1-1044 of NP_783864.1
T1 sequence: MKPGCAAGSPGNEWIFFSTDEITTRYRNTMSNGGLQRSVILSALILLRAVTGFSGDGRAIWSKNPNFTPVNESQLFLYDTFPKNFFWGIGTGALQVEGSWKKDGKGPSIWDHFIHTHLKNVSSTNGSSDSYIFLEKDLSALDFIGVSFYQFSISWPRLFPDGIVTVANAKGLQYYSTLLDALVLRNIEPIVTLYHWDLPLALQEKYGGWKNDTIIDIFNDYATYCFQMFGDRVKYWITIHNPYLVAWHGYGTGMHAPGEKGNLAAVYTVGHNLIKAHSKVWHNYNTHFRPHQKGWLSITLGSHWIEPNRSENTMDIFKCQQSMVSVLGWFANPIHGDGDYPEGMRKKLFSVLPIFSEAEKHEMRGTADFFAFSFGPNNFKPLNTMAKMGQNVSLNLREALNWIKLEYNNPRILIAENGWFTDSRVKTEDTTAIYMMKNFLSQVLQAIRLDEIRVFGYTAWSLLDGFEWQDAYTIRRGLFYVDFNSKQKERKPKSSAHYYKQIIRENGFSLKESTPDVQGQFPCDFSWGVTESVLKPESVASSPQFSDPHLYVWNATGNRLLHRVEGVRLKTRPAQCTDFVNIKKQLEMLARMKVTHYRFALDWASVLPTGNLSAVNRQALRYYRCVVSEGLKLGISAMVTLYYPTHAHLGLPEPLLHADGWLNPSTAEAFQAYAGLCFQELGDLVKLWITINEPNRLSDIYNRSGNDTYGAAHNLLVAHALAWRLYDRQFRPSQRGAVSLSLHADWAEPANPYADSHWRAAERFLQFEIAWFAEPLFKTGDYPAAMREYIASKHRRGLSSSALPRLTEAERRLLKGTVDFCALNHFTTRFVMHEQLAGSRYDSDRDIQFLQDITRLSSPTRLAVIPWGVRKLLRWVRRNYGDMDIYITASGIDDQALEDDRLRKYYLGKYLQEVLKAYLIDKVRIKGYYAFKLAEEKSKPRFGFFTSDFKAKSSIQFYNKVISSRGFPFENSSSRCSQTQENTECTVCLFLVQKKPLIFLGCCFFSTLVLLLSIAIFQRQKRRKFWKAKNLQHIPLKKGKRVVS

B1: H1H8897P (antibody, V domains shown)
VH: QVQLVESGGGLVKPGGSLRLSCAAAGFTFSDYYMSWIRQAPGQGLEWVSYISPSGSTTYYADSVQGRFTISRDNAKSSLYLQMNSLRAEDTAVYYCARTGIQLWSVYFDYWGQGTLVTVSS
VL: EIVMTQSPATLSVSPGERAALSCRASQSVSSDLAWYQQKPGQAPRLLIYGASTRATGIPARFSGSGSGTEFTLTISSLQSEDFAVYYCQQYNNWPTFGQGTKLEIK
notes: H1H Fc prefix (human Fc)
B2: H1H8898P (antibody, V domains shown)
VH: B1 VH with A25S, T28I, Q43K, E46D, V48I, T58I, Q65K, S77N, E89D
VL: EIVMTQSPATLSVSPGERATLSCRASQSVGSNLAWYQQKPGQAPRLLIYGASTRANGIPARFSGSGSGTEFTLTISGLQSEDFAVYYCQQYNNWPTFGQGTKLEIK
notes: H1H Fc prefix (human Fc)
B3: H4H8880P (antibody, V domains shown)
VH: EVQLVESGGGVVQPGGSLRLSCAASGFTFSLYAMSWVRQAPGKGLEWVSAISGSAHGAYYADSVKGRFTISRDNSKNSLYLQMNSLRAEDTAIYYCAKDLVIAVAGTFDYWGQGTLVTVSS
VL: DIQMTQSPSSLSASVGDRVTITCRASQIISTYLNWYQQKPGKAPKILIYTASSLKSGVPSRFSGSGSGTDFTLTISSLQPEDFATYYCQQTYSSPRFTFGPGTKVDIK
notes: human IgG4 Fc (H4H prefix)
B4: H4H8837P (antibody, V domains shown)
VH: QVQLVESGGGVVQPGRSLRLSCAASGFTFNSYAMHWVRQAPGMGLEWVAVISSDGSNKYYADSVRGRFTVSRDNSKNTLYLQMNSLRSEDTAVYYCAKDGRGYSSFSHFGMDVWGQGTTVTVSS
VL: DIQMTQSPSTLSASVGDRVTITCRASQSIGSWLAWYQQKPGKAPKLLIYKTSSLESGVPSRFSGSGSGTEFTLTISSLQPDDFASYYCQQYNSYSFGQGTKVEIK
notes: human IgG4 Fc (H4H prefix)
B5: H4H8881P (antibody, V domains shown)
VH: QVQLVQSGAEVKKPGASVKVSCKASGYTFTSYVIHWVRQAPGQRLEWMGWSNAANGDTKYSQEFQDRVTFTRDTSASTAYMELSSLRSEDMAVYYCARWNWNYGAFDIWGQGTMVTVSS
VL: DIQMTQSPSSLSASVGDRVTITCQASQDINNYLHWYQQKSGKAPNLLIYDASILETGVPSRFSGSGSGTDFTFTISSLQPEDIATYYCQQYDNLPYTFGQGTKLEIK
notes: human IgG4 Fc (H4H prefix)
B6: H4H8878P (antibody, V domains shown)
VH: QVQLVESGGGVVQPGRSLRLSCAASGFTLNTYGMHWIRQTPGKGLEWVSLISYDETKEYYVDSVKGRFTISRDNSKNTLYLQMNSVRVEDTAVYYCAKPLTGSTDYYYGLDVWGQGTTVTVSS
VL: DIQMTQSPSYVSASVGDRVIITCRASQDISSWLAWYQQKPGKAPKLLIYVTSSLESGVPSRFSGSGSGTDFTLTISGLQPEDFATYYCQQVKSFPPTFGPGTKVDIK
notes: human IgG4 Fc (H4H prefix)
B7: H4H8852P (antibody, V domains shown)
VH: QVQLQESGPGLVKPSETLSLTCTVSGGSISSYYWSWIRQPPGKGLEWIGYIYSSGIIKYNPSLKSRVTISADTSKNQFSLKLSSVTAADTAVYYCARHGIFGVMEYFQRWGQGTLVTVSS
VL: DIQMTQSPSSLSASIGDRVTITCQASQDIGNFLNWYQQKPGKAPTLLIYDASNMETGVPSRFSGSGSGTYFTFTISSLQPEDVATYYCQQYDNLPLTFGGGTKVEIK
notes: human IgG4 Fc (H4H prefix)
B8: H4H8871P (antibody, V domains shown)
VH: B7 VH with G27A
VL: B7 VL with Q37H, S63R, T74I
notes: human IgG4 Fc (H4H prefix)
B9: H4H8856P (antibody, V domains shown)
VH: B7 VH with G49A, S53Y, I57T
VL: B7 VL with G30S, A51V, S67Y, Y70D, F73L, Q79K, V83I, L94I
notes: human IgG4 Fc (H4H prefix)

Target: T2, human KLB and human FGFR1c co-expressed on HEK293/hKLB/hFGFR1c/SRE-luc cells (human, UniProt Q86Z14 1-1044; P11362 22-822)
Assay: cell-based or functional assay

| IC50, inhibition of 1 nM hFGF21 | Maximum Inhibition (%) of 1 nM hFGF21 | Binder |
| --- | --- | --- |
| 970 pM | 101% | B1 |
| 2000 pM | 97% | B2 |
| 150 pM | 39% | B3 |
| 80 pM | 51% | B4 |
| 67 pM | 77% | B5 |
| 230 pM | 38% | B6 |
| 380 pM | 101% | B7 |
| 380 pM | 92% | B8 |
| 650 pM | 91% | B9 |

Target: M. fascicularis KLB and human FGFR1c co-expressed on HEK293/MfKLB/hFGFR1c/SRE-Luc cells (M. fascicularis; human, UniProt A0A2K5WB58 1-1044)
Assay: cell-based or functional assay

| IC50, inhibition of 10 nM mfFGF21 | Maximum Inhibition (%) of 10 nM mfFGF21 | EC50, SRE-luc activation without ligand | Maximum Activation (%) without ligand | Binder |
| --- | --- | --- | --- | --- |
| 5200 pM | 101% | – | – | B1 |
| 12000 pM | 97% | – | – | B2 |
| 120 pM | 39% | – | – | B3 |
| 89 pM | 51% | – | – | B4 |
| 46 pM | 77% | 20 pM | 3% | B5 |
| 120 pM | 38% | – | – | B6 |
| 470 pM | 101% | 46 pM | 5% | B7 |
| 390 pM | 92% | 130 pM | 4% | B8 |
| 790 pM | 91% | 180 pM | 5% | B9 |

Target: T1, full-length human KLB on …
Assay: FACS on stable HEK293 cells
Experimental: (§1) To determine binding specificity of the monoclonal anti-KLB/FGFR1c antibodies, the antibodies were tested in a fluorescence-activated cell sorting (FACS) binding assay to cell lines expressing human FGFR1c, human KLB, and both human FGFR1c and human KLB. HEK293 cell lines were generated that stably express full-length human FGFR1c (hFGFR1c; SEQ ID NO:433) or full-length human KLB (hKLB; SEQ ID NO:434) or both human FGFR1c and human KLB, along with a luciferase reporter [SRE (serum response element)-luciferase, SA Bioscience, #CLS-010L]. The resulting cell lines, referred to as HEK293/hFGFR1c/SRE-luc, HEK293/hKLB/SRE-luc, and HEK293/hKLB/hFGFR1c/SRE-luc, respectively, were maintained in DMEM supplemented with 10% FBS, NEAA, penicillin/streptomycin, 1 μg/mL puromycin and […] hygromycin B, 1 μg/mL puromycin and 500 μg/mL G418, or all three antibiotics.
(§2) For the FACS analysis, HEK293 parental, HEK293/hFGFR1c/SRE-luc, HEK293/hKLB/SRE-luc, and HEK293/hKLB/hFGFR1c/SRE-luc cells were dissociated and plated onto 96-well v-bottom plates at 5 x 10⁵ cells/well in PBS containing 1% FBS. […] Cells were filtered and subsequently analyzed on a Hypercyte Flow Cytometer (Intellicyt Corp.). Unstained and secondary antibody alone controls were also tested for binding to all cell lines. The results were analyzed using FlowJo version 9.52 software and geometric mean (Geom. Mean) of fluorescence for viable cells was determined. Geom. mean of fluorescence for each antibody was then normalized to Geom. mean of unstained cells to obtain relative binding of antibody (binding ratios) per each cell type.

| binding ratio to unstained cells | Binder |
| --- | --- |
| 1 fold | B1 |
| 1 fold | B2 |
| 14 fold | B3 |
| 13 fold | B4 |
| 15 fold | B5 |
| 11 fold | B6 |
| 7 fold | B7 |
| 7 fold | B8 |
| 5 fold | B9 |

Target: T2, human KLB and human FGFR1c co-expressed …
Assay: FACS on stable HEK293 cells
Experimental: as §1, §2

| binding ratio to unstained cells | Binder |
| --- | --- |
| 8 fold | B1 |
| 8 fold | B2 |
| 32 fold | B3 |
| 33 fold | B4 |
| 35 fold | B5 |
| 35 fold | B6 |
| 33 fold | B7 |
| 33 fold | B8 |
| 30 fold | B9 |

Target: T3, full-length human FGFR1c on HEK293/hFGFR1c/SRE-luc cells (human, UniProt P11362 22-822)
T3 construct: amino acids 1-733 of NP_075593
T3 sequence (P11362 other isoform, or with tags, fused parts or gaps limits assumed): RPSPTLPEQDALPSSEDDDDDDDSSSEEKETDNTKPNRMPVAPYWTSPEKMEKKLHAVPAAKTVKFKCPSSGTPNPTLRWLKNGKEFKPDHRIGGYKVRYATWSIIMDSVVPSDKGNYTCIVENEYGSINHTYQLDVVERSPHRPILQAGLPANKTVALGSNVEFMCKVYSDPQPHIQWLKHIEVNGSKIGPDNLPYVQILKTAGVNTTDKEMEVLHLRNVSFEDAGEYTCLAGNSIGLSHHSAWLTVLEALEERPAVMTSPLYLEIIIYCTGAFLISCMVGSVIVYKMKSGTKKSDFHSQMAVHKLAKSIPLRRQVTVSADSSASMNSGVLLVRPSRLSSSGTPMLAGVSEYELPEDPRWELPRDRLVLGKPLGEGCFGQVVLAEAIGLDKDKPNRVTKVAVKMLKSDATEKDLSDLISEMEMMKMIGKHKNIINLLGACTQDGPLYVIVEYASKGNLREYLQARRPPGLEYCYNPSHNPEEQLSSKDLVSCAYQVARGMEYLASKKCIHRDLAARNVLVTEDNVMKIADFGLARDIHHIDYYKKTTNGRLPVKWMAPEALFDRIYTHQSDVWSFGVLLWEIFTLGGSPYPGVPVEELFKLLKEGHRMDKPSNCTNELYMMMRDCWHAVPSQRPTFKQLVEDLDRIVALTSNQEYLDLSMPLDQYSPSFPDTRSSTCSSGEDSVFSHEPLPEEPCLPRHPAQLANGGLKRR
Assay: FACS on stable HEK293 cells
Experimental: as §1, §2

| binding ratio to unstained cells | Binder |
| --- | --- |
| 1 fold | B1 |
| 1 fold | B2 |
| 2 fold | B3 |
| 2 fold | B4 |
| 2 fold | B5 |
| 2 fold | B6 |
| 1 fold | B7 |
| 1 fold | B8 |
| 1 fold | B9 |
